Laboratory results reported in paper PMC6683731 (The Journal of Cell Biology, 2019).
Where two headings read alike, the source gives them in different places. Values belong to the binder of their own block, whether it stands above or below them.

Tests used:
Assay in all cases: pull-down
His6-SET (full length) [1] = target: T1, His6-SET (full length) (human, UniProt Q01105 1-290)
[2] = target: T2, cohesin subcomplex containing SA2 (residues 80–1060) and Scc1 (residues 281–420) (UniProt Q8N3U4 80-1060; O60216 281-420)
T2 sequence (looked up) 1: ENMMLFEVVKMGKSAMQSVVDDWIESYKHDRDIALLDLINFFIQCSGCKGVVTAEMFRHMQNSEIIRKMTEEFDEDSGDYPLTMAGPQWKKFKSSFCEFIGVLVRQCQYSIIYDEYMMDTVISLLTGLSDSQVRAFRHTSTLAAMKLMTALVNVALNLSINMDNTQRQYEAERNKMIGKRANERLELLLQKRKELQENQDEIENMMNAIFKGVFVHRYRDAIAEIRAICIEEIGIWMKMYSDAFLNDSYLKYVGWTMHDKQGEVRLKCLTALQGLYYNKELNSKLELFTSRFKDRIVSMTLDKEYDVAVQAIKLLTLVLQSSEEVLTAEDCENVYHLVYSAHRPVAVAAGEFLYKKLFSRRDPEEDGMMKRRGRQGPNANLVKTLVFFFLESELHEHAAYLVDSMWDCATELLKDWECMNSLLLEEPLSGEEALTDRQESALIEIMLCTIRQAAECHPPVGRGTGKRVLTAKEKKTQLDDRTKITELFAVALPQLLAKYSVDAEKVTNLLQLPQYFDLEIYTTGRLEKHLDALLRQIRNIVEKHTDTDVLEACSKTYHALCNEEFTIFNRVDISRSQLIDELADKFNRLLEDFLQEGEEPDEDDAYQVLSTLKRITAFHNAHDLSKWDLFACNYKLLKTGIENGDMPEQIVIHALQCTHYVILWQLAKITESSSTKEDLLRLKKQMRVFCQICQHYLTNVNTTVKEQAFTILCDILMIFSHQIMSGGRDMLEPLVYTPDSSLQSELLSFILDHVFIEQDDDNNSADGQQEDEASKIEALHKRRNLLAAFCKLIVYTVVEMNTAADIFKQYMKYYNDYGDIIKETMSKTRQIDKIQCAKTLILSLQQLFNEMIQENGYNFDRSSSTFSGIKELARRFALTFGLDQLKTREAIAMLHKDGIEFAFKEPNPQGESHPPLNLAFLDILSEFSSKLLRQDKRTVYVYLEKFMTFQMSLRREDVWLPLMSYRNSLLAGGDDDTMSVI
T2 sequence (looked up) 2: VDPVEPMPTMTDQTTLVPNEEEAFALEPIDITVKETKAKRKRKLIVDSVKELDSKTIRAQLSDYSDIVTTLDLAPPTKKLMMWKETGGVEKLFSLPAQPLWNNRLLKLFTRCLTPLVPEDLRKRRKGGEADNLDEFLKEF

His6-SET (full length) [3] = target: T1, His6-SET (full length); remark: listed apart in the source
[4] = target: T2, cohesin subcomplex containing SA2 …; remark: listed apart in the source

T1 sequence (Q01105 whole entry, the tested form may be a part): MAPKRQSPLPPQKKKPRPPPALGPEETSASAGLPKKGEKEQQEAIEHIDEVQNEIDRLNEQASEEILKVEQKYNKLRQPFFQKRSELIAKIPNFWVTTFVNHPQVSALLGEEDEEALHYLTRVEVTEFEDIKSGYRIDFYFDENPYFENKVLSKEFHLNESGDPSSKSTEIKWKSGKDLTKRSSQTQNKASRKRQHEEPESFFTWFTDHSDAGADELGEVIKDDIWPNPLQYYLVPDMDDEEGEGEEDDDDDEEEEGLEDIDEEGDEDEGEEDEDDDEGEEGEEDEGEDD

B1: GST-Sgo1 WT (241–387) (domain or fragment, human, UniProt Q5FBB7 241-387, looked up)
chain: VQHNACQWSKDQVNLSPKLIQPGTFTKTKEDILESKSEQTKSKQRDTQERKREEKRKANRRKSKRMSKYKENKSENKKTVPQKKMHKSVSSNDAYNFNLEEGVHLTPFRQKVSNDSNREENNESEVSLCESSGSGDDSDDLYLPTCK
binding result (His6-SET (full length) [1]): binds
binding result [2]: binds

B2: GST-Sgo1 (241–387), Cdk1-phosphorylated (domain or fragment, human, UniProt Q5FBB7 241-387, looked up)
chain: B1 chain
modifications: phospho-Thr346 (Cdk1/cyclin B1; detected with antibody against Sgo1 pT346; how much was phosphorylated could not be measured)
binding result (His6-SET (full length) [3]): binds
binding result [4]: binds

B3: GST-Sgo1 ΔCohesin (241–387 depleted of 313–353) (domain or fragment, human, UniProt Q5FBB7 241-387, looked up)
chain: VQHNACQWSKDQVNLSPKLIQPGTFTKTKEDILESKSEQTKSKQRDTQERKREEKRKANRRKSKRMSKYKENNDSNREENNESEVSLCESSGSGDDSDDLYLPTCK
binding result (His6-SET (full length) [1]): binds

Other lines, results leading:

binding result [2]: binds
B4: GST-Sgo1 ΔSET (241–387 depleted of 281–310) (domain or fragment, human, UniProt Q5FBB7 241-387, looked up)
chain: VQHNACQWSKDQVNLSPKLIQPGTFTKTKEDILESKSEQTENKSENKKTVPQKKMHKSVSSNDAYNFNLEEGVHLTPFRQKVSNDSNREENNESEVSLCESSGSGDDSDDLYLPTCK

binding result (His6-SET (full length) [1]): binds
B5: GST-Sgo1 fragment 115–353 (domain or fragment, human, UniProt Q5FBB7 115-353, looked up)
chain: QEICSSGMDPNSDDSSRNLFVKDLPQIPLEETELPGQGESFQIEDQIPTIPQDTLGVDFDSGEAKSTDNVLPRTVSVRSSLKKHCNSICQFDSLDDFETSHLAGKSFEFERVGFLDPLVNMHIPENVQHNACQWSKDQVNLSPKLIQPGTFTKTKEDILESKSEQTKSKQRDTQERKREEKRKANRRKSKRMSKYKENKSENKKTVPQKKMHKSVSSNDAYNFNLEEGVHLTPFRQKVS

binding result (His6-SET (full length) [1]): binds
B6: GST-Sgo1 fragment 200–353 (domain or fragment, human, UniProt Q5FBB7 200-353, looked up)
chain: NSICQFDSLDDFETSHLAGKSFEFERVGFLDPLVNMHIPENVQHNACQWSKDQVNLSPKLIQPGTFTKTKEDILESKSEQTKSKQRDTQERKREEKRKANRRKSKRMSKYKENKSENKKTVPQKKMHKSVSSNDAYNFNLEEGVHLTPFRQKVS

binding result (His6-SET (full length) [1]): binds
B7: GST-Sgo1 fragment 280–353 (domain or fragment, human, UniProt Q5FBB7 280-353, looked up)
chain: TKSKQRDTQERKREEKRKANRRKSKRMSKYKENKSENKKTVPQKKMHKSVSSNDAYNFNLEEGVHLTPFRQKVS
